According to US20110236309A1:

T1: TGF-β3 (Homo sapiens (Human)) (UniProt P10600)
T1 sequence: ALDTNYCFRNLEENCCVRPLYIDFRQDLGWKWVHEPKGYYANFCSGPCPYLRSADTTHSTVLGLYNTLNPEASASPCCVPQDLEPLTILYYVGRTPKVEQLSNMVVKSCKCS


What was measured:
[1] = biological target: T1, TGF-β3 (Homo sapiens (Human))
[2] = biological target: TGF-β1 (Homo sapiens (Human)) (UniProt P01137)
[3] = biological target: T1, TGF-β3 (Homo sapiens (Human)); remark: listed apart in the source
[4] = biological target: TGF-β1 (Homo sapiens (Human)) (UniProt P01137); remark: listed apart in the source

TGF-β1 (Homo sapiens (Human)), sequence (P01137 279-390 limits assumed): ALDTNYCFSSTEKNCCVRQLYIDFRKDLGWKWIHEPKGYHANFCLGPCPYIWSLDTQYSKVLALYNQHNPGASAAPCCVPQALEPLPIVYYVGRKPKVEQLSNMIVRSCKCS

fold potency against TβRII-ED (neutralization, Mv1Lu luciferase reporter cells) [1] | fold potency against TβRII-ED (neutralization, Mv1Lu luciferase reporter cells) [2] | IC50 for TGF-β3 (neutralization, Mv1Lu luciferase reporter cells) [3] | IC50 for TGF-β1 (neutralization, Mv1Lu luciferase reporter cells) [4] | Binder
1000 fold | 1000 fold | 0.045 nM | 0.098 nM | (TβRIIb)^2 homo-bivalent single-chain recombinant trap (designed binder, from a related filing) APMAEGGGQNHHHHHHHHGGSFNPRIPPHVQKSVNNDMIVTDNNGAVKFPQLCKFCDVRFSTCDNQKSCMSNCSITSICEKPQEVCVAVWRKNDENITLETVCHDPKLPYHDFILEDAASPKCIMKEKKKPGETFFMCSCSSDECNDNIIFSEEYNTSNPDIPPHVQKSDVEMEAQKDEIICPSCNRTAHPLRHINNDMIVTDNNGAVKFPQLCKFCDVRFSTCDNQKSCMSNCSITSICEKPQEVCVAVWRKNDENITLETVCHDPKLPYHDFILEDAASPKCIMKEKKKPGETFFMCSCSSDECNDNIIFSEEYNTSNPD
100 fold | 100 fold | 0.336 nM | 1.36 nM | (TβRII)^2 homo-bivalent single-chain recombinant trap (designed binder, from a related filing) TIPPEQKLISEEDLLHVQKSVNNDMIVTDNNGAVKFPQLCKFCDVRFSTCDNQKSCMSNCSITSICEKPQEVCVAVWRKNDENITLETVCHDPKLPYHDFILEDAASPKCIMKEKKKPGETFFMCSCSSDECNDNIIFSEEYNTSNPDGGRHVQKSVNNDMIVTDNNGAVKFPQLCKFCDVRFSTCDNQKSCMSNCSITSICEKPQEVCVAVWRKNDENITLETVCHDPKLPYHDFILEDAASPKCIMKEKKKPGETFFMCSCSSDECNDNIIFSEEYNTSNPDHHHHHH
